In article PMC7582164, “The soluble neurexin-1β ectodomain causes calcium influx and augments dendritic outgrowth and synaptic transmission” (Scientific Reports, 2020):
No end group written: not given here.

B1: Neurexide (synthetic 10-mer peptide modeled after the NX-1β binding site for NL-1), tetramer on a lysine backbone (peptide)
peptide: ARPSTRADRA
modifications: also: tetramer coupled to a lysine backbone
notes: The peptide was made as a C-terminally amidated monomer, a dimer and a tetramer; also called Neurexin peptide; source: synthetic peptide

Key:
[1] = biological target: Recombinant neuroligin-1 (NL-1) (UniProt Q62765); assay: SPR; Biacore 2000; NL-1 immobilised on a CM4 chip by amine coupling (~2800 RU); analyte NX-1β Fc chimera 0.05-0.8 µM or Neurexide 1.25-20 µM; 25 °C; HBS-P (10 mM HEPES pH 7.4, 150 mM NaCl, 0.005% P20) with 3 mM CaCl2; 30 µl/min; 1:1 Langmuir fit
[2] = biological target: T1, Recombinant neuroligin-1 (NL-1) (UniProt Q62765 46-697); assay: as above; settings: both partners purified
T1 construct: neuroligin-1, recombinant; source: bought: R&D Systems (cat# 4340-NL)
T1 sequence (Q62765 46-697): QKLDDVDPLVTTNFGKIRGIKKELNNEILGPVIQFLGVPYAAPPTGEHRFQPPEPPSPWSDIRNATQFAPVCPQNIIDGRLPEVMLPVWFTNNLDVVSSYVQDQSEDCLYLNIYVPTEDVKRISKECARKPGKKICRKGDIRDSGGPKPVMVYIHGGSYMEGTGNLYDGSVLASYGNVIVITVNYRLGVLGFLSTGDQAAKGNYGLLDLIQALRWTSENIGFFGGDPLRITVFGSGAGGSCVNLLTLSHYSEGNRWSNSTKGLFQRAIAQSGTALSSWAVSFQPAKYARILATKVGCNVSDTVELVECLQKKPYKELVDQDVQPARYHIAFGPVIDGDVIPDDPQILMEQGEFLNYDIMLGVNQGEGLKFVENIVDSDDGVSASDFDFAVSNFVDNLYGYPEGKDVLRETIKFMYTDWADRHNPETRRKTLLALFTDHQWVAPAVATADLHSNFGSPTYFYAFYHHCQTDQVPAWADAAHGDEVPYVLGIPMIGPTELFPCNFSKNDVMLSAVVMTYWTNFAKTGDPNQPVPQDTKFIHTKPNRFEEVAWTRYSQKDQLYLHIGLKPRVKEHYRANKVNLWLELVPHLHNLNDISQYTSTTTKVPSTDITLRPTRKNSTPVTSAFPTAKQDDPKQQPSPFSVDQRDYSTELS

Chain of Recombinant neuroligin-1 (NL-1) (UniProt Q62765) (Q62765 46-697): as above

Molecule	Kd [1] [nM]	Kd [2] [nM]
Human neurexin-1β Fc-chimera (NX-1β ectodomain lacking splice site 4) (from UniProt P58400 51-396) (Fc fusion)	32	–
B1	–	480
